Data: the domain aggregation screens of Martell et al. (2025)

Assay: soluble fraction after stress (log2 fold change); higher = more stays soluble; pooled small domains, quantitative proteomics
Conditions: stress: pH 4
Procedure, shortened: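 Values are log2 fold changes, and higher ones mean more of the domain stayed soluble. Each fold change reflects the soluble amount of a domain after acid stress and is taken as a measure of aggregation propensity. The stress was pH 4, applied to pooled custom libraries of small protein domains analysed by high-throughput quantitative proteomics.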

Sequence | soluble fraction (log2)
HMPEVAHTIDMEAVNKHWDELPEREQRILVMRFYGNLTQTEIGERLGISQMHVSRLLARALSHLKSRLLD | -0.046
HMPEVYPFEVAEDDAGKRLDVFLSEEIEEFTRSFIQKLIAGGLASVNRAPARASYRVKPRDLVELQVPE | -0.158
HMPFNREYWIEQLLKEVGLMGTPYAELDKHEVELDSPTGRASGFKVNAKTYVDQQLLFIENEYNNQPE | -0.899
HMPFREGDEVFVELVEPHMYNEDDAVAKLDGYVVAVRGAAGLVGQKVLVRIERVGRSSAEATLVA | -0.451
HMPGEIKKIPINSISYQDLKQHPYFDAYLAKQVIKYRETKGRIENIEQFREATRAYQSLIEKVTPYLDFE | -0.268
HMPGGLSAEDVEKMVEKVLTVNGDVVEEIRSGRDPKGKKIKFLAGLVMRDARGQADAAAVSGILERRLKEG | 0.371
HMPGLITLEAAKTTALNHAKLTADQVTFVKQKLDRDDGRQVYEIEFYTSDYKEYDYEIDAVSGLILEVDYD | -0.33
HMPGLPLWAFSTRGSAIHTGASFRDGDGLLFGPESRGLPDWLLEEVGQDRVLRLPMRPGSRSLNLSNAV | -1.7
HMPGPAEMPGWITARAKKLGGQITPEAARALAAEMGSDTEQASREIEKLLTYVDYRRPVEEEDVALLTA | 0.00808
HMPGRKTTFEERLSIIEDLIKHDVNYSWAVDKYHVSYQQVYGWYQKYRKSGNDPQSLRDRRGK | ≥ 0.43
HMPGRPSRISDAVKDQIDHDLRKNPRDLGYSQNLWDGKLLSHHLKERYQITLGIRQAQRLFHQLGFRQR | -0.0409
HMPGVLEVDTGGVAAVAYVDGVEVGRVPGELQIAAGTKTLMLKADRYLDYVQSLEIDGLGKRQLLVATLQS | -0.831
HMPGVTTQLHRLNGTEETYIIKRGDGVLEIDGEKSELQLGDAIIIPAGASQKISNIGDEDLE | -0.229
HMPHFFISTSDVNQDIITVSDKENFHHIARVLRSKVGETLLLVDENRTQYKVVIQNIDSKSITTKVVETLK | -0.697
HMPHFGVVLQMDDWKTLRDRLEARDDIDWVMKPNLRFEGQPGEQATLFIRDPSGNALEFKGFADLSQVF | -1.64
HMPHSTTDFSVSPDERQIVYSTNLQGRYDLWALDHNQGYPYPLTKKGQMSFFIKHLPGSQMILTGFD | 0.0618
HMPIDQAKRKKEIIQNFGIRKIYKFSEIFDLKFGRDNIIVTFLIILDMIKEGVVEINENKEEIEFEYK | -0.04
HMPIKYTHKGYTINVSRSKMNGTTFVKVVDPKGQVIQQSQDNRIQDVNQLVTTMKQYIDTLKPS | -0.0336
HMPILRDEVYLSIKEAILTGELAPGERISIGRLLPQIGFSPTPIREALLKLEQEGFVSRLQRGGFIVSR | -0.471
HMPIQLLSEKYMDEHWDELDKDEVSLYQNMSIRFLLKHEDDINWKLYSTNPFISIDTIDFFKDKISWVNI | -1.45
HMPKAKASARNDTRTRLLTIGTEVLSQKGFASTGVEEILSVAGVPKGAFYYYFESKAAFGLAVIENYE | 0.22
HMPKAMAIMSEIAGTVHIDDTKKSRHVEVTGVDDNGAPVTKSYLIPFGHRLKVMEGDVLVKGALLT | -0.0288
HMPKHHIESVIPENFAGERLDKVLAVLWGTFSRAQLTRWIRDGSLLLDGHKVKPNTKVDGSEKIVLQAEVA | 0.0479
HMPKNEHETKAIGNQTGGRVFLFLNTDNINRDYNMYISKQVKFVREISQEYYGKVAVFEDLYGNLWDLIE | -0.222
HMPKNRTDYVQDVLKSLGRPAHYKEITQIINAMLPKEAQYSAKSIQVVLGSSPLFIRVGTGTYALVE | -0.79

Sequence | soluble fraction (log2)
HMPKNVEVPNVVGLSLPMAKLRLTQLGLHIVVRDSVWSETGQPNTILDQDPQPGKKIKPESTVYVKVN | ≥ 0.43
HMPKRYAGPDIIAIYGSDVFFRVGSGDGLMVIPVGRSMDNIEVVSVDAPRSVELMWKDGGPFTVPV | -0.218
HMPKSKTPDDAAEEFRTAFSALDMDGKVTVKDMAEYMGVIDKTVYARLKKMGDEFTLDKGVITKKT | -0.084
HMPKTATIVIDLNYADAKEIVENLQTILAGETKDISVAPHPSANQIIASGDRWEVENISTIIKQLDR | -1.02
HMPKTLTEAAYEDIKQWILEGEITPGSKISLEDTASRLEVSMTPIREALTKLQQEGLVEYIPRAGWRASK | -0.294
HMPLAQRFGLTVAQARVLDLLAEGRSNRQIGELLGLTEGTVKIHVSAIMKAMGVSNRAEAALMANRKR | -0.29
HMPLDKDTTLDEIYRRFNMEHPADYKGHSLSMGDIVVFRQDGKQTAYYVDEGADYRQVPEFFVK | -0.173
HMPLDPFVVDALRDEIINTIKQHEPRVDLQKVQVQPIYTQNRVNISVQYKIVGLPIVEDITFVLQRP | 0.135
HMPLEKGVVILDVTPSSAKVAVDGTSVETTYPLRLSAGLHQLSAEADGYDSITEYFKVETEKTTVTLDLSK | 0.234
HMPLEQAELRLDLKQAILQMDRQTQELLLLRYVDGLSPGEAGKVLELSRFAVYRREKEALRKLRDYFSH | -0.834
HMPLLSEWDAALEELWAKLGDVPMDPETERMDAPFLGFPAGTPREDIWHWFDERHSKGVAHLLYG | -1.78
HMPLQYRLTVQPTPTNARVRLVNSAFTYRPGVALPPGSYIVEVSSSGYGAKRQAVQIADGDVTVPVELEKI | 0.138
HMPLYKYYTSYQIEPGDTLTSIAQKYTINSDVSVQDYIDEVKKNNNLVSDKINSGSYLVVSYYSNEY | -1.24
HMPNIQLARNLKYLRLAYGLTQDDLGAFLNISRQAYSNYENLKRSPDLDSLIRLASLYHLSLDDLVSR | -1.24
HMPNTLAGIERYLGSGMVKGIGPVYASRLVSAFGTAVFDVIEQTPERLREIDGIGEKRTRKITSGWADQ | -0.242
HMPNYIDAISALLTLKGVGDRKHASTMANILNLQYNSAKQKLDGKRGITLDEVKKVFQYFNEPF | -0.76
HMPPAPGHDLTEREREVLRLLVEGLSNQEISDRLVISQSTVKNHVSSVLSKLDAANRAEAVALALKNQL | -0.547
HMPPELSDEVMEEAMSYLKNQYLNHGVKLEDYPALNKLFVDEAFRSEVIRKTQSNYKISYQSAMASLD | -0.928
HMPPENVSVRREQIAEDKKTVYNVWVTKGNKTVLYSKVVYAWGGVYFFRDLNTSISENMYKQADAGLVN | -0.0222
HMPPGQIVNEALQRAGNSTPTGTAISAQDDIKLYTSALAELATQGDTSSASVAKLREALQTAQVAFYNAV | 0.0927
HMPPITIVPNDNGVPIIRSQTPEISTAVNVELKAAGINTHTIDGTSIRVPKAQAQVAQQIVSRVNTRFT | 0.266
HMPPNHADLKSSGLKATLPRLKILEIFQNSQVRHLSAEDVYKLLLAENLDVGLATVYRVLTQFEQAGL | -0.511
HMPPNRDDEHLQALRDYYAANRRIPSLQRVASLLGFSSRSAAVKLMGRLADEGFIERTADDDAWITGKRFF | -0.371
HMPPNVLSEREQEVLQLAADGMSNKEMGSELYIAPTTVRDHMQSIMRKLQVNSRTAAAVAGLKLGLLD | -0.422
HMPPPTLVESAYNHLKADIISSYLKPDEKINLKDLSQRYQVSETPIKQALNRLISEGLIISVPRKGMWVH | 0.065

Sequence | soluble fraction (log2)
HMPPPVERAIRKLGHDLSLARRRRRISQDSMAQRMGASVSTVRRIEKGDPRIPIHFIARAMMILGDLKAL | -0.105
HMPQFDRQAFGQRLRLLRDYREMTQQQVANFLNVDRSTYSYYENGKTEPSITVLMRMAELFSVTLDSLLNM | -1.05
HMPQIDLYPFEVRIEQDNNAAEYAVRFLDVPNIIGSGASIDEAIVEARGNLKEYLDYLIDTNRDIPLPS | -1.43
HMPQISQDDLMEAGLIVGKEAKQRRIKLGEILGIGYVNAKQLPKRLQLFQVAKSDFEQAVQQIDG | 0.134
HMPQKSDLTMEEYNKLGLAGGSGSRKLREQVGIRLSVGYGNSKQFYNRLHTFGISLDELKTAVEEVKNG | 0.295
HMPQNVSVPDVTNMTQAEAESKLKEKNLAVGNIIPELSTTVEKDKVTRTNPESGSNVRKNSKVDIYVSQG | 0.327
HMPQPDVIEVRQGIVTGMRPDRRTGWLRDEEDAAGEPKSFSIDVITPKGRTPGKGAVVTYTLTNGKITEVK | 0.143
HMPRELKVRDVSHQHAGHAGWREGGETHFEVDMKADVFAGTSRVAAHRMVNKVLANELASRVHALQLNLS | -0.308
HMPRENLAYTLIMDGIVQHKNLPRASVTEAWLKQELQKAGINDFRQVLIAGIDSKGQLYFQPKQK | -0.392
HMPRPLVAPMPGLIVRVTAVVGDSVDAGQGLVVMEAMKMENELRTTTAGVVKTVHVQPGVAVEKGALLIEF | -0.766
HMPRTEILMVDEEMEGERLDAFVAEQLDELSRSLVKTLIENGEIRVDGKQQKPSYRLKAGEEIIVEIPA | -0.438
HMPSDTNLIGKTGIAYTTLRPGGTALIDDRKVDVVADSEYIEKDKKIKVIRVEGIKVVVTAVK | 0.194
HMPSGRIRWFDAKKGYGFIAGDDGKDVFLPQTALPQGVRNPRKGAKVEYSVIEGNRGQVAMGVTMV | 0.0307
HMPSHALFWTLLKEVPGYDPHYKDVIKEGIVHEHSGGRTTSLSEMYTKYPREYSLMIEAMKG | -0.326
HMPSKTFYNLSQEKQQKIIDASEKEFSNNLYQDVSLNQIIKNSNISRGSFYMYFTDKEDLYFYLLNEY | ≥ 0.43
HMPSLGADIRALRKSRKMTLVALADALGRSVGWLSQVERDKSHATIADLGRMAEVLDVSISSFL | -0.209
HMPSLSAILHDARVAAGLSMRQASAASGLSIGFISMLEQGKVQDISLQRLGRLVTAYDLEPLDVIEAAG | -0.848
HMPSSAYGPYKNVFLSNSELTKLKNELPTSWEHYINRLSEYMRSTGRQYQSHAATILRWAATDRNS | 0.0263
HMPSSFLVKVTADALNIRSGPGVANRITGTIKDKGTYTIVDTKDDWGKLKSGVGWIHLGYTKRLD | 0.0923
HMPSSQQVMRRLATVGPDKTLEELQRQHDAHLRKYGEFNDFRGERQQMRQEMERIKEAKQGTGPYAHLMG | -0.0742
HMPTAGYMTVTPDRVKEGQQFLATLRPPYVLKADGLAAGKGVLILPELEEAQRELEEMLGGFLGELSVNR | -0.303
HMPTERLSMRRIRELLRLRFEVGLSTRLIATALGISKGAVGDYLQRAQVAGLGWPLPENLNDAALERRLFP | ≥ 0.43
HMPTGRVVIPLNRLTASDVARILDEAYGRDHNFEVVKPSRLAKGIIVIGPKSEIDGIKELLAH | -0.173
HMPTLLGYKHILSAWNPDTNTVFRTSYGYDGEYGSREEAMQALIKMIQEGGKATPRGIEESEVPIY | 0.0029
HMPTLSKVGSQGEEVRQIQTKLKNWGYLNDRVDGIYGPKTRDAVIWFQKKNGLVADGIAGPATLKAMGIFT | ≥ 0.43
